One substance from paper PMC9556784 can be followed below.

Series [1] has as its system PilJ soluble domain (Clostridioides difficile R20291?). Nature of the series: EMSA. As to conditions: 25C: 10 ng DNA in 10 ul, 10 mM Tris-HCl pH 8.5, 50 mM NaCl, 1 mg/ml BSA, 30 min, 1.5% agarose; 4C: 500 ng DNA in 10 ul, 20 mM Tris-HCl pH 8.3, 100 mM NaCl …. For orientation: In EMSA bound probe runs differently from free probe, usually more slowly.
Series [2] deals with PilW soluble domain (Clostridioides difficile R20291?). As to the kind of experiment: EMSA. The following applies: 25C: 10 ng DNA in 10 ul, 10 mM Tris-HCl pH 8.5, 50 mM NaCl, 1 mg/ml BSA, 30 min, 1.5% agarose; 4C: 500 ng DNA in 10 ul, 20 mM Tris-HCl pH 8.3, 100 mM NaCl ….

Take plasmid DNA (25C EMSA): the Kd (commonly the free concentration of one partner at which half of the binding sites on the other are occupied at equilibrium, for simple one-to-one binding) was 2.2 µM in series [1] and 14.5 µM in series [2].
